From patent US10640547B2, “Immunotherapy against melanoma and other cancers” (IMMATICS BIOTECHNOLOGIES GMBH, priority 2016, dated 2020) come the findings set out here.

One assay has as its target HLA-A*02:01 (Homo sapiens, UniProt P04439, D140Y/D185E/D98H/E176V/E277Q/G131W/G231S/I119V/I121R/I166T/I218V/L300P/L318F/N151K/N90K/P208A/P217A/Q86G/Q94H/R138H/R169H/T345S). The experiment in a line: MHC binding assay (UV-ligand exchange, β2m ELISA). The note with it: MHC class I binding score; binding to HLA-A*02:01 ranged by peptide exchange yield (UV-ligand exchange, β2m ELISA). The procedure, abridged:
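Exchange yield is an ELISA read-out: complexes diluted 100-fold, captured on streptavidin plates, detected with HRP anti-β2m and TMB at 450 nm. Standard curve from refolded HLA-A*02:01/MLA-001 (15-500 ng/ml); complexes made by UV-triggered displacement of a photolabile ligand by test peptide.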
A general note: In an ELISA, binding on a coated surface is turned into a signal by an enzyme label.

For a further assay, the system named is CD8+ T cells. The experiment in a line: In vitro immunogenicity: T-cell priming with artificial APCs loaded with peptide/MHC and anti-CD28, pMHC multimer readout. It counts as cell-based, human. The note with it: Table 10B; HLA-A*02 restricted peptides; percentage of positive wells among evaluable. An excerpt: In order to obtain information regarding the immunogenicity of the TUMAPs of the present invention, the inventors performed investigations using an in vitro T-cell priming assay based on repeated stimulations of CD8+ T cells with artificial antigen presenting cells (aAPCs) loaded with peptide/MHC complexes and anti-CD28 antibody.
In order to perform in vitro stimulations by artificial antigen presenting cells loaded with peptide-MHC complex (pMHC) and anti-CD28 antibody, the inventors first isolated CD8+ T cells from fresh HLA-A*02 leukapheresis products via positive selection using CD8 microbeads (Miltenyi Biotec, Bergisch-Gladbach, Germany) of healthy donors obtained from the University clinics Mannheim, Germany, after informed consent.
PBMCs and isolated CD8+ lymphocytes were incubated in T-cell medium (TCM) until use consisting of RPMI-Glutamax (Invitrogen, Karlsruhe, Germany) supplemented with 10% heat inactivated human AB serum (PAN-Biotech, Aidenbach, Germany), 100 U/ml Penicillin/100 μg/ml Streptomycin (Cambrex, Cologne, Germany), 1 mM sodium pyruvate (CC Pro, Oberdorla, Germany), 20 μg/ml Gentamycin (Cambrex). 2.5 ng/ml IL-7 (PromoCell, Heidelberg, Germany) and 10 U/ml IL-2 (Novartis Pharma, Nürnberg, Germany) were also added to the TCM at this step.
Generation of pMHC/anti-CD28 coated beads, T-cell stimulations and readout was performed in a highly defined in vitro system using four different pMHC molecules per stimulation condition and 8 different pMHC molecules per readout condition.
The purified co-stimulatory mouse IgG2a anti human CD28 Ab 9.3 (Jung et al., 1987) was chemically biotinylated using Sulfo-N-hydroxysuccinimidobiotin as recommended by the manufacturer (Perbio, Bonn, Germany). Beads used were 5.6 μm diameter streptavidin coated polystyrene particles (Bangs Laboratories, Illinois, USA).
800.000 beads/200 μl were coated in 96-well plates in the presence of 4×12.5 ng different biotin-pMHC, washed and 600 ng biotin anti-CD28 were added subsequently in a volume of 200 μl. Stimulations were initiated in 96-well plates by co-incubating 1×10^6 CD8+ T cells with 2×10^5 washed coated beads in 200 μl TCM supplemented with 5 ng/ml IL-12 (PromoCell) for 3 days at 37° C. Half of the medium was then exchanged by fresh TCM supplemented with 80 U/ml IL-2 and incubating was continued for 4 days at 37° C. This stimulation cycle was performed for a total of three times. For the pMHC multimer readout using 8 different pMHC molecules per condition, a two-dimensional combinatorial coding approach was used as previously described (Andersen et al., 2012) with minor modifications encompassing coupling to 5 different fluorochromes. Finally, multimeric analyses were performed by staining the cells with Live/dead near IR dye (Invitrogen, Karlsruhe, Germany), CD8-FITC antibody clone SK1 (BD, Heidelberg, Germany) and fluorescent pMHC multimers. For analysis, a BD LSRII SORP cytometer equipped with appropriate lasers and filters was used. Peptide specific cells were calculated as percentage of total CD8+ cells. Evaluation of multimeric analysis was done using the FlowJo software (Tree Star, Oregon, USA). In vitro priming of specific multimer+CD8+ lymphocytes was detected by comparing to negative control stimulations.

Consider “211 (FLPFLTTEV; listed as Homo sapiens) [compound 211]”, for which the Peptide exchange result with HLA-A*02:01 is listed as “++++ (>75% = ++++)”. The “Wells positive [%]” value in the assay with CD8+ T cells is “+ (<20% = +)”.

On to “213 (LLDPTNVFI; listed as Homo sapiens) [compound 213]”, for which the Peptide exchange entry in the assay with HLA-A*02:01 was “++++ (>75% = ++++)”. In addition, the “Wells positive [%]” value in the assay on CD8+ T cells was “++ (20%-49% = ++)”.

As for “232 (KILPDLNTV; listed as Homo sapiens) [compound 232]”, in the assay with HLA-A*02:01, the Peptide exchange result is “++++ (>75% = ++++)”. Further, the “Wells positive [%]” value in the assay with CD8+ T cells is “+ (<20% = +)”.
